The chains are these.
B1: anti-CLDN-5 ECR mAb clone 1B3 (antibody, V domains shown)
VH: QIQLVQSGPELKKPGETVKISCKASGYSFTAHGMSWVKQAPGKGLKWMGWINTYSGVPAYADDFKGRFAFSLETSPSTAFLQINNLKNEDTATYFCTRSHYDRKFGYWGQGTLVTVSA
VL: QAVVTQESALTTSPGETVTLTCRSSTGAVTTSNYANWVQEKPDHLFTGLIGDTNNRAPGVPARFSGSLIGDKAALTITGAQTGDEAIYFCALWYSNLWVFGGGTKLTVR
notes: source: hybridoma from an Antigen1-immunized BXSB mouse; ascitic fluid, purified (Protein G Sepharose); also reconstituted as recombinant antibody
B2: anti-CLDN-5 ECR mAb clone 1D1 (antibody, V domains shown)
VH: QVQLQQPGAEHVKPGASVKLSCKASGYTFTTYWIHWVKQRPGRGLEWIGRIAPNSGGTKYNENFKSKATLTVDRPSTTAYMQLSGLTSEDSAVYYCARWDFTFGTNLDYWGQGTTLTVSS
VL: DIVMTQSQKFMSTSVGDRVSITCKASQNVRTAVAWYQQKPGQSPKALIFLASNRHTGVPDRFTGSGSGTDFTLTITNVQSEDLADYFCLQHWTYPYTFGGGTKLEIK
notes: source: hybridoma from an Antigen2-immunized BXSB mouse; ascitic fluid, purified (Protein G Sepharose); also reconstituted as recombinant antibody
B3: anti-CLDN-5 ECR mAb clone 2B1 (antibody, V domains shown)
VH: B2 VH with H11L, Y32F, N54Y, K59T, N63K, S84I, G85S, F103Y, T105S
VL: B2 VL with T22P, F49Y, T76S, Q90G, T93D
notes: as for B2
B4: anti-CLDN-5 ECR mAb clone 2B12 (antibody, V domains shown)
VH: QVQLQQSGAELARPGASVKLSCKASGYTFTRFGMSWVKQRTGQGLEWIGEIYPGSGDTYYSENFKGKATLTADKSSGTAYMELRSLTSEDSAVYFCARWGIYYGNPYAMDYWGQGTSVTVSS
VL: DIVMTQAAPSVPVTPGESVSISCRSSKSLLHSNGNTYLYWFLQRPGQSPQLLIYRMSNLASGVPDRFSGSGSGTAFTLRISRVEAEDVGVYYCLQHLEYPFTFGSGTKLEIK
notes: as for B2

Substitutions are numbered along the chain they refer to.

T6 sequence (O54942 whole entry): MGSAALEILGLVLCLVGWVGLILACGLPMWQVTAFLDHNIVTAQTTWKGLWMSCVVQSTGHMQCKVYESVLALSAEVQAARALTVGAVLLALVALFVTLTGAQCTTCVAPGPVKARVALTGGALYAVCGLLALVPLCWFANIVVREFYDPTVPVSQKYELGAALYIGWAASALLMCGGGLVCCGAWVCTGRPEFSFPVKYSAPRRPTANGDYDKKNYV
T2 sequence (O14493 whole entry): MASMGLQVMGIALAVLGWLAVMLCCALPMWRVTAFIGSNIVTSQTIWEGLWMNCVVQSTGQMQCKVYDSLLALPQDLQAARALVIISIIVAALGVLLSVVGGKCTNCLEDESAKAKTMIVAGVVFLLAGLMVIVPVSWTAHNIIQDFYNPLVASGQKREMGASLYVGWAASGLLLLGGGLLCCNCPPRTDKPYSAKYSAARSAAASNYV
T4 sequence (O95471 whole entry): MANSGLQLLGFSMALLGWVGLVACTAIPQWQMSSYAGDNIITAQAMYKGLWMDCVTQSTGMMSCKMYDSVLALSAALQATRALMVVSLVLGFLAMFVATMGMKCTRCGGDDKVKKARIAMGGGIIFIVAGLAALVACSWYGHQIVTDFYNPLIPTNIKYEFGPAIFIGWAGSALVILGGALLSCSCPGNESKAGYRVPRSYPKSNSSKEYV

For the first test, the target named is T1, human claudin-3 expressed in HT-1080 cells (Homo sapiens (Human)., UniProt O15551).
T1 construct: claudin-3, human; also called human CLDN-3; source: HT-1080 cells, stably expressing
T1 sequence (O15551 whole entry): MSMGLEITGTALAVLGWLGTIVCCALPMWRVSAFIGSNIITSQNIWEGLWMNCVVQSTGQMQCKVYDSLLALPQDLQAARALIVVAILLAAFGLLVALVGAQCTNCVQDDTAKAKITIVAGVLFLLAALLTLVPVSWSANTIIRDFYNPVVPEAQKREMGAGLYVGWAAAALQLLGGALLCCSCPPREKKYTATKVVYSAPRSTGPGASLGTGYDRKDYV
The test is described as follows: flow cytometry on cells; HT-1080 cells stably expressing CLDNs or CLDN-5 mutants, detached with 0.05% trypsin/0.02% EDTA; 5 µg/mL mAb; fluorescence-conjugated goat anti-mouse IgG. As to conditions: one partner purified. For orientation: A flow cytometer gives signals particle by particle.
As for B1, the binding result was “no binding (tested: 5 µg/mL)”.
Same read-out and setting: the same measure for B2: “no binding (tested: 5 µg/mL)”.
For the molecule B3, the binding result is “no binding (tested: 5 µg/mL)”.
Still for that read-out and setting: the same measure for B4: “no binding (tested: 5 µg/mL)”.

Another test concerns the target T2, human claudin-4 expressed in HT-1080 cells (Homo sapiens (Human)., UniProt O14493).
T2 construct: claudin-4, human; also called human CLDN-4; source: HT-1080 cells, stably expressing
The test is described as above. Particulars: one partner purified.
Turning to B1, the binding result is recorded as “no binding (tested: 5 µg/mL)”.
On the same count and under the same terms, the same measure for B2: “no binding (tested: 5 µg/mL)”; for B3: “no binding (tested: 5 µg/mL)”; for B4: “no binding (tested: 5 µg/mL)”.

In a further test the target is T3, human claudin-6 expressed in HT-1080 cells (Homo sapiens (Human)., UniProt P56747).
T3 construct: claudin-6, human; also called human CLDN-6; source: HT-1080 cells, stably expressing
T3 sequence (P56747 whole entry): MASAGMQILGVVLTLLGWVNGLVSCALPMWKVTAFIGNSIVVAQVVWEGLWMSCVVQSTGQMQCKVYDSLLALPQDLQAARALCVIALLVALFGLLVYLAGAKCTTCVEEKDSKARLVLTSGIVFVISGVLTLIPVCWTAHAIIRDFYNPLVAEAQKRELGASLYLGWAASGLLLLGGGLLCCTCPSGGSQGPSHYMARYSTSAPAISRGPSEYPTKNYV
Described as above. As to conditions: one partner purified.
For the molecule B1, the binding result is given as “no binding (tested: 5 µg/mL)”.
For the molecule B2, the binding result is reported as “no binding (tested: 5 µg/mL)”.
The same measure, in the same setting: then B3, with “no binding (tested: 5 µg/mL)”; and B4, with “no binding (tested: 5 µg/mL)”.

The next test concerns the target T4, human claudin-7 expressed in HT-1080 cells (Homo sapiens (Human)., UniProt O95471).
T4 construct: claudin-7, human; also called human CLDN-7; source: HT-1080 cells, stably expressing
The description is as above. Particulars: one partner purified.
In the case of B1, the binding result is reported as “no binding (tested: 5 µg/mL)”.
Still for that read-out and setting: the same measure for B2: “no binding (tested: 5 µg/mL)”; for B3: “no binding (tested: 5 µg/mL)”.
Still for that read-out and setting: then B4, with “no binding (tested: 5 µg/mL)”.

For a further test, the target named is T5, human claudin-5 expressed in HT-1080 cells (Homo sapiens (Human)., UniProt O00501).
T5 construct: claudin-5, human; In the western blot the same protein stood denatured in the cell lysate; The TEER assays used MDCKII cells expressing human CLDN-5; also called human CLDN-5; hCLDN-5; source: HT-1080 cells, stably expressing; on cells and in lysate
T5 sequence (O00501 whole entry): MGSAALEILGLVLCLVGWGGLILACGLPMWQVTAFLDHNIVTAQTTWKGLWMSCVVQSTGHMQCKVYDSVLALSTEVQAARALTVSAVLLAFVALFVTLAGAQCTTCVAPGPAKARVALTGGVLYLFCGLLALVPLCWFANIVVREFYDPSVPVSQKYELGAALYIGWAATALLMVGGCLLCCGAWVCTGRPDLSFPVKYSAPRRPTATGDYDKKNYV
Described as above. As to conditions: one partner purified.
Consider B1, for which the binding result is recorded as “binds”.
Consider B2, for which the binding result was “binds”.
On the same count and under the same terms, the same measure for B3: “binds”.

Another test has as its target T6, mouse claudin-5 expressed in HT-1080 cells (Mus musculus (Mouse)., UniProt O54942).
T6 construct: claudin-5, mouse; The TEER assays used MDCKII cells expressing mouse CLDN-5; also called mouse CLDN-5; mCLDN-5; source: HT-1080 cells, stably expressing
The description is as above. Particulars: one partner purified.
In the case of B1, the binding result is recorded as “no binding (tested: 5 µg/mL)”.
As to B2, the binding result is reported as “no binding (tested: 5 µg/mL)”.
Same read-out and setting: then B3, with “no binding (tested: 5 µg/mL)”; and B4, with “no binding (tested: 5 µg/mL)”.

In another test the target is T7, human claudin-1 expressed in HT-1080 cells (Homo sapiens (Human)., UniProt O95832).
T7 construct: claudin-1, human; also called human CLDN-1; source: HT-1080 cells, stably expressing
T7 sequence (O95832 whole entry): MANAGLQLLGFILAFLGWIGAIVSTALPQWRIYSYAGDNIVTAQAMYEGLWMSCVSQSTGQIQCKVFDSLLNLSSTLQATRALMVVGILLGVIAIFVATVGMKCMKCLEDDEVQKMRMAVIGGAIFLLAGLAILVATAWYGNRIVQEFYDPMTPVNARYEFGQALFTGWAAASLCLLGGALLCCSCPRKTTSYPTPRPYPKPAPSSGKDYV
The description is as above. Particulars: one partner purified.
Take B1: the binding result is on record as “no binding (tested: 5 µg/mL)”.
On to B2, for which the binding result is on record as “no binding (tested: 5 µg/mL)”.
For B3, the binding result is “no binding (tested: 5 µg/mL)”.
The same measure, in the same setting: the same measure for B4: “no binding (tested: 5 µg/mL)”.

The target in a further test is T8, human claudin-2 expressed in HT-1080 cells (Homo sapiens (Human)., UniProt P57739).
T8 construct: claudin-2, human; also called human CLDN-2; source: HT-1080 cells, stably expressing
T8 sequence (P57739 whole entry): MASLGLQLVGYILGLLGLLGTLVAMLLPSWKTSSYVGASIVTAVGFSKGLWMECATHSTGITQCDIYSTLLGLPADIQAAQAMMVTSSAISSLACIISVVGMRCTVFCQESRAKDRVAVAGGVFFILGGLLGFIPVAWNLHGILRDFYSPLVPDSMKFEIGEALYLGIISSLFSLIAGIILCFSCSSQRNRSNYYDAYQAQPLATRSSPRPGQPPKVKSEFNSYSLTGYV
The test is described as above. Particulars: one partner purified.
Take B1: the binding result is on record as “no binding (tested: 5 µg/mL)”.
Still for that read-out and setting: the same measure for B2: “no binding (tested: 5 µg/mL)”; for B3: “no binding (tested: 5 µg/mL)”; for B4: “no binding (tested: 5 µg/mL)”.

The target in the next test is T9, AGIA-tagged human CLDN-5, cell-free synthesized proteoliposome (Homo sapiens, UniProt O00501).
T9 construct: claudin-5, human; codon-converted synthetic gene; The vector pEU-E01-AGIA-GW puts a start codon and the AGIA tag at the 5′-end of the cassette, though the label reads hCLDN-5-AGIA; also called hCLDN-5-AGIA; cell-free synthesized CLDN-5; source: wheat cell-free synthesis on liposomes, proteoliposomes collected by centrifugation; not shown: AGIA, N-terminal, kept
T9 sequence (O00501 whole entry): as the sequence (O00501 whole entry) above
The test is described as follows: ELISA; cell-free synthesized AGIA-tagged CLDN proteoliposomes immobilised on a microtiter plate overnight at 4 °C; mAb 10 µg/mL in 5% skimmed milk/T-TBS, 1 h at room temperature; HRP anti-mouse IgG + IgM. Particulars: both partners purified.
As to B1, the binding result is on record as “binds”.
Consider B2, for which the binding result is “binds”.
For the molecule B3, the binding result was “binds”.

In the next test the target is T5, human claudin-5 expressed in HT-1080 …. Briefly: flow cytometry on cells; HT-1080/hCLDN-5 cells with purified mAb at 0.0024–40 µg/mL; mean fluorescence intensity fitted to Y = Bmax • X/(Kd + X); apparent dissociation constant; three independent experiments. Particulars: one partner purified.
Take B4: the Kd was found to be 7.37 nM.
